The assay deals with recombinant tubulin lacking the β-tubulin CTT, polymerised into microtubules (S. cerevisiae | human) (UniProt P09733). The assay is described as follows: TIRF microscopy of single fluorescent molecules on surface-held microtubules.

“dynein-dynactin-BicD2 (DDB) complex (from UniProt Q921C5 25-400; A0A287B8J2 1-1281)”: the reduction of the frequency of processive movement relative to WT MTs came out at 20%.

(Values after doi:10.1101/027631.)
